This note sets out measurements from patent CN108059680A (BEIJING DONGFANG BIOTECH CO LTD, dated 2018).

For this assay, the target named is T1, CD20 (UniProt P11836 1-297, limits assumed).
T1 construct: whole, on cells; also called 细胞表面CD20; Raji细胞(过表达CD20细胞系)
T1 sequence (looked up): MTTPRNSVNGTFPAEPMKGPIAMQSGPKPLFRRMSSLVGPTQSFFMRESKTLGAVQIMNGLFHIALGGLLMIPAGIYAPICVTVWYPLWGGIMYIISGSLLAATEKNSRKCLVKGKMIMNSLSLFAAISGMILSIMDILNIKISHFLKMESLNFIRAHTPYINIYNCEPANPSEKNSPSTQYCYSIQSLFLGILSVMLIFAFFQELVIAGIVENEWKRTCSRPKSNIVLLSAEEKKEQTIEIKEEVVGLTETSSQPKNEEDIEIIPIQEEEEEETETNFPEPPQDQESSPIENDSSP
As to the kind of experiment: flow cytometry on Raji cells (CD20-overexpressing), Alexa488 anti-human IgG-Fc detection. (In general: A flow cytometer gives signals particle by particle.)

B1: JY052 (bispecific antibody, human IgG4 S228P, kappa)
light: DIVMTQTPLSLPVTPGEPASISCRSSKSLLHSNGITYLYWYLQKPGQSPQLLIYQMSNLVSGVPDRFSGSGSGTDFTLKISRVEAEDVGVYYCAQNLELPYTFGGGTKVEIKRTVAAPSVFIFPPSDEQLKSGTASVVCLLNNFYPREAKVQWKVDNALQSGNSQESVTEQDSKDSTYSLSSTLTLSKADYEKHKVYACEVTHQGLSSPVTKSFNRGEC
heavy: QVQLVQSGAEVKKPGSSVKVSCKASGYAFSYSWINWVRQAPGQGLEWMGRIFPGDGDTDYNGKFKGRVTITADKSTSTAYMELSSLRSEDTAVYYCARNVFDGYWLVYWGQGTLVTVSSASTKGPSVFPLAPCSRSTSESTAALGCLVKDYFPEPVTVSWNSGALTSGVHTFPAVLQSSGLYSLSSVVTVPSSSLGTKTYTCNVDHKPSNTKVDKRVESKYGPPCPPCPAPEFLGGPSVFLFPPKPKDTLMISRTPEVTCVVVDVSQEDPEVQFNWYVDGVEVHNAKTKPREEQFNSTYRVVSVLTVLHQDWLNGKEYKCKVSNKGLPSSIEKTISKAKGQPREPQVYVLPPSQEEMTKNQVSLLCLVKGFYPSDIAVEWESNGQPENNYLTWPPVLDSDGSFFLYSRLTVDKSRWQEGNVFSCSVMHEALHNHYTQKSLSLSLG
chain: not shown
notes: Three-chain bispecific: anti-CD20 light-heavy pair plus anti-CD3 single-chain Fab-Fc, joined by hinge disulfides and a knob-into-hole structure in CH3; also called 抗CD20×CD3的双特异抗体; 针对CD20和CD3的双特异性抗体
In the case of B1, the binding result is reported as “binds”.
